# Assay results as given in US20190276542A1 (QILU PUGET SOUND BIOTHERAPEUTICS, published 2019).
# Read-outs that look alike come from different tables or passages of the source.
# B1: anti-hCTLA4 antibody 10D4 (antibody, human IgG1, V domains shown)
# VH: QVQLVESGGGVVEPGRSLRLSCTASGFTFSSYGMHWVRQAPGKGLEWVAVIWYHPSKKDYADSAKGRFTISRDNSKNTLYLQMNSLRAEDTAVYYCARAGLLGYFDYWGQGTLVTVSS
# VL: EIVLTQSPGTLSLSPGERATLSCRASQSVTSYLAWYQQKPGQAPRPLIYGVSSRATGIPDRFSGSGSGTDFTLTISRLEPEDFAVYYCQQYGRYPFTFGPGTKVDIK
# notes: unaltered form; also called Anti-CTLA4 10D4; anti-hCTLA4 #10D4
# B2: altered anti-hCTLA4 11F4 (antibody, human IgG1, kappa, V domains shown)
# VH: QVQLVESGGGVVEPGRSLRLSCAASGFTFSSYGMHWVRQAPGKRLEWVAVIWYKPSEKDYADSAKGRFTISRDNSKNTLYLQMNSLRAEDTAVYYCARGGLLGYFDYWGDGTLVTVSS
# VL: EIVLTQSPGTLSLSPGERATLSCRASQSINSYLAWYQQKPGQRPRPLIYGVSSRATGIPDRFSGSGSGTDFTLTISRLEPEDFAVYYCQQYGRYPFTFGDGTKVDIKR
# B3: anti-hCTLA4 antibody 11F4 (antibody, human IgG1, V domains shown)
# VH: QVQLVESGGGVVEPGRSLRLSCAASGFTFSSYGMHWVRQAPGKGLEWVAVIWYKPSEKDYADSAKGRFTISRDNSKNTLYLQMNSLRAEDTAVYYCARGGLLGYFDYWGQGTLVTVSS
# VL: EIVLTQSPGTLSLSPGERATLSCRASQSINSYLAWYQQKPGQAPRPLIYGVSSRATGIPDRFSGSGSGTDFTLTISRLEPEDFAVYYCQQYGRYPFTFGPGTKVDIK
# notes: unaltered form; also called Anti-CTLA4 11F4; anti-hCTLA4 #11F4
# Assays:
# [1] = target: T1, CTLA4-ECD_Fc, soluble hCTLA4 comprising the extracellular domain of hCTLA4 fused to an Fc fragment (human, UniProt P16410 36-161); assay: flow cytometry; inhibition of CTLA4-ECD_Fc binding to Raji cells (hB7-1/hB7-2)
# T1 construct: extracellular domain; not shown: Fc fragment
# Protocol: In a first assay, inhibition of hCTLA4 binding to hB7-1 and hB7-2 expressed on the surface of Raji cells was assessed. Raji cells, which are human cells, express high levels of hB7-1 and hB7-2. […] After 30 minutes, 1×10⁵ Raji cells were added to each well and incubated for another 30 minutes. […] IC₅₀'s were calculated using GraphPad Prism software (GraphPad, Inc., La Jolla, Calif., USA).
# [2] = target: T2, human CTLA4 expressed on Jurkat T cells (human, UniProt P16410 36-223); assay: flow cytometry on Jurkat T cells expressing hCTLA4
# T2 construct: whole, on cells; also called hCTLA4; cell surface-expressed hCTLA4
# From the text: After washing, the surface-bound anti-hCTLA4 antibodies were detected with a polyclonal anti-hlgG (Fc-specific) antibody labeled with fluorescein isothiocyanate (FITC)(anti-hlgG-FITC). Binding of anti-hCTLA4 antibodies were detected by flow cytometric analysis. The results were reported a geometric mean fluorescence intensity (MFI) using FlowJo software (FLOWJO, L.L.C., Ashland, Oreg., USA).
# [3] = target: T2, human CTLA4 expressed on Jurkat T cells; assay: cell-based or functional assay
# [4] = target: T2, human CTLA4 expressed on Jurkat T cells; assay: cell-based or functional assay; remark: listed apart in the source
# [5] = target: T2, human CTLA4 expressed on Jurkat T cells; assay: cell-based or functional assay; remark: listed apart in the source
# T2 sequence (P16410 36-223): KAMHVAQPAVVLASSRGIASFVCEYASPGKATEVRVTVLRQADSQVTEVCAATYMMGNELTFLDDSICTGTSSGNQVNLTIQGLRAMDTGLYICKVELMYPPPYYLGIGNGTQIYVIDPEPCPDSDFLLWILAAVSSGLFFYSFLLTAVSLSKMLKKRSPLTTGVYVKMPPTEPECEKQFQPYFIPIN
# T1 sequence (P16410 36-161): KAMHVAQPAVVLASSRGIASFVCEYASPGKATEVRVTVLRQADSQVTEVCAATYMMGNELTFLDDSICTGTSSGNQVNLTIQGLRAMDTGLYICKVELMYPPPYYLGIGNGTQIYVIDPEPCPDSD
Binder,IC50 [1] [nM],EC50 [2] [nM],"IC50, luciferase (RLU), CTLA4 Dual-Cell Reporter Assay (Jurkat cells with hCTLA4 plus Raji cells) [3] [nM]","IC50, luciferase reporter assay (Jurkat cells with CTLA4 plus Raji cells with hCD80 and hCD86) [4] [nM]","IC50, luciferase reporter assay (Jurkat cells with CTLA4 plus Raji cells with hCD80 and hCD86) [5] [nM]"
B1,3.3,0.085,6.12,2.12,–
B2,–,–,–,–,8.68
B3,7.5,0.158,7.39,–,4.8
